The target of experiment [1] is T1, hu-CD96 (soluble, isoform 2 extracellular domain) (human, UniProt P40200 22-516, biotinylated in Octet and blocking ELISA).
T1 construct: the assays name only hu-CD96; also called hCD96; biotinylated hu-CD96
T1 sequence: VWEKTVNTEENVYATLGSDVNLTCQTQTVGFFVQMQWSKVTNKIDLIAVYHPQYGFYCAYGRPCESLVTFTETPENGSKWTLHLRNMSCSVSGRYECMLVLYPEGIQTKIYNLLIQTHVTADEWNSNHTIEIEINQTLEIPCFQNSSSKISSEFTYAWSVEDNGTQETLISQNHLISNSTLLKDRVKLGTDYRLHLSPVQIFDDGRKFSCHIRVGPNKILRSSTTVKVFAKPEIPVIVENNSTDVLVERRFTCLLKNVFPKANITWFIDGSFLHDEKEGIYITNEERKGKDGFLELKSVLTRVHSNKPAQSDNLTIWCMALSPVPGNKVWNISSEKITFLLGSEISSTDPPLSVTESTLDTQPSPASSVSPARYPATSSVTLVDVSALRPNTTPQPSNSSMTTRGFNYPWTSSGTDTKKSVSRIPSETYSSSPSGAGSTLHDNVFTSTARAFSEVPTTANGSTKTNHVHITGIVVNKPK
The experiment is described as follows: BLI (Octet), biotin-CD96 on SA, Fab analyte. How it is done:
(§1) The binding affinity of the generated Fab variants of mAb1.v7 for hu-CD96 and cy-CD96 was determined by OCTET (Pall ForteBio) Bio-Layer Interferometry (BLI) binding analysis. The biotinylated hu-CD96 or biotinylated cy-CD96 was diluted to a final concentration 10 µg/mL in experimental buffer (PBS buffer with 0.01% Tween-20) and immobilized on the Streptavidin Capture (SA) biosensors (Pall ForteBio). Three-fold serial dilutions of the mAb1.v7 Fab variants starting at 1 µM as analytes were diluted in the experimental buffer (PBS buffer with 0.01% Tween-20). The biosensors were equilibrated in experimental buffer at 30° C. for ten minutes prior to starting the experiment. The kinetics experiment was performed with the following steps, where the step name, solution and time are listed: Baseline (buffer—60 seconds), Loading (biotinylated antigen—200 seconds), Baseline 2 (buffer—minimum 120 seconds), Association (analyte—200-300 seconds) and Dissociation (buffer—1000 seconds). The resulting BLI signal from analyte association and dissociation from the […] was analyzed using the Octet Data Analysis software (Pall ForteBio). First a reference subtraction was performed on all recorded traces using the reference well (biosensor that underwent same steps as experimental wells but no analyte for the Association step) and then all the traces were aligned to the beginning of the Association step. The entirety of the Association and Dissociation steps were used in a Global fit (minimum of four analyte concentration traces) in a 1:1 binding model to calculate the K_D values for the 16 selected individual mAb1.v7 Fab variants as summarized in Table 9 (below).
On the technique in general: BLI is a label-free optical method that tracks binding on a fibre tip over time.

For experiment [2], the target named is T2, cy-CD96 (soluble, extracellular domain) (cynomolgus monkey, UniProt P40200 22-516 (human entry), biotinylated in Octet and blocking ELISA).
T2 construct: the assays name only cy-CD96; also called biotinylated cy-CD96
T2 chain: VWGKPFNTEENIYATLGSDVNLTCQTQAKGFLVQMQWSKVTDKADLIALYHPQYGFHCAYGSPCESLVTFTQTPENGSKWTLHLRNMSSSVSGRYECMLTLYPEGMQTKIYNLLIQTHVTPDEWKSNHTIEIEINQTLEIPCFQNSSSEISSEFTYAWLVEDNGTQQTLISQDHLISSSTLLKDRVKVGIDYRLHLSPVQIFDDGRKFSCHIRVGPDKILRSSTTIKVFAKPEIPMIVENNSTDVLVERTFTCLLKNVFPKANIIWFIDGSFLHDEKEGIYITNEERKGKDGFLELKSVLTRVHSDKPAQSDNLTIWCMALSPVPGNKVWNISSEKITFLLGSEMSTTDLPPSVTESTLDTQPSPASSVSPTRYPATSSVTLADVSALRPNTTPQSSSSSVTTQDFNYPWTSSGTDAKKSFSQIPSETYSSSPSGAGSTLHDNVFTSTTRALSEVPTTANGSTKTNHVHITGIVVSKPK
The experiment is described as follows: BLI (Octet), biotin-CD96 on SA, Fab analyte. How it is done:
as §1

The target in experiment [3] is T1, hu-CD96 (soluble, isoform 2 …). The experiment is described as follows: phage competition ELISA, soluble CD96 vs coated hu-CD96. How it is done: (§2) 192 colonies from most stringent selections (biotinylated 0.1 nM of hu-CD96 or cy-CD96 with 1000× non-biotinylated human or cy-CD96) were grown in 400 µL 2YT with 4 µL helper phage M13KO7 overnight at 37° C. with shaking. After spinning down the pellet, the phage supernatant was diluted 1:1 with 2 nM hu-CD96, 20 nM cy-CD96 and ELISA buffer (0.5% BSA and 0.05% TWEEN®20 in PBS) in total […] and incubated for two hours at room temperature with agitation. The […] of mixture was transferred to hu-CD96 coated plate for 15 min to capture unbound phage. The plate was washed with wash buffer (0.05% TWEEN®20 in PBS), and HRP-conjugated anti-M13 antibody (Sino biological, Cat #11973-MM05-H-50) was added in ELISA buffer for 30 min. […] Enzymatic color development was stopped using TMB stop solution (VWR, Cat #95059-200). Plates were analyzed with a SpectraMax i3X plate reader (Molecular Devices). The % inhibition was calculated by the $OD450$ of wells with hu-CD96/cy-CD96 competitor divided by $OD450$ of wells with buffer alone. The lower % inhibition indicated higher phage $IC50$ against hu-CD96 or cy-CD96.
(§3) Selected top inhibition % phage variants from single spot competition were purified from culture supernatants. The optimal phage concentration was incubated with serially-diluted hu-CD96 or cy-CD96 in ELISA buffer in NUNC F plate for two hours. The […] of the mixture was transferred to hu-CD96 coated wells for 15 min to capture unbound phage. The plate was washed with wash buffer (0.05% TWEEN®20 in PBS), and HRP-conjugated anti-M13 antibody (Sino biological, Cat #11973-MM05-H-50) was added in ELISA buffer for 30 min. The plates were washed and developed as described above. The absorbance at 450 nm was plotted as a function of antigen concentration in solution to determine phage $IC50$.
For orientation: In an ELISA, binding on a coated surface is turned into a signal by an enzyme label.

Experiment [4] concerns the target T2, cy-CD96 (soluble, extracellular domain). The description is as above. How it is done: as §2, §3
Experiment [5] addresses T1, hu-CD96 (soluble, isoform 2 …). As to the kind of experiment: BLI (Octet), biotin-CD96 on SA, Fab analyte. The source holds these as a separate data set.
For experiment [6], the target named is T2, cy-CD96 (soluble, extracellular domain). The experiment is described as follows: BLI (Octet), biotin-CD96 on SA, Fab analyte.

Substitutions are numbered along the chain they refer to. Numbers in names are those of the source. Where two headings read alike, the source gives them in different places.

B1: mAb1.v7.6 Fab (Fab, V domains shown)
VH: EVQLVQSGAEVKKPGASVKVSCKASGFTFTNRWMHWVRQAPGQGLEWIGMIHVNSGITNINEKFKNRVTMTTDTSTSTAYMELRSLRSEDTAVYYCRSDGLYEGYFDYWGQGTLVTVSS
VL: DIQLTQSPSSLSASVGDRVTITCKASQNVGTAIVWYQQKPGKAPKVLIYSASTRYTGVPSRFSGSGSGTDFTLTISSLQPEDFATYYCQQYSSSPLTFGQGTKVEIK
notes: also called N32R/P52aV/T97L
What is called Kd is the free concentration of one partner at which half of the binding sites on the other are occupied at equilibrium, for simple one-to-one binding. Broadly, the IC50 is the concentration at which inhibition is half-maximal. A lower IC50 goes with higher potency. B1: the Kd is 28.4 nM in experiment [1] and 284 nM in experiment [2]. For the same molecule, the half-inhibitory concentration (IC50) in experiment [3] worked out at 0.16 nM; in experiment [4], 0.15 nM.

B2: mAb1.v7.NGS4 Fab (Fab, V domains shown)
VH: B1 VH with R32N, V53P, E62H, L101T
VL: B1 VL
notes: also called E61H
Turning to B2, the dissociation constant Kd turned out to be 31.5 nM in experiment [5] and 739 nM in experiment [6].

B3: mAb1.v7.NGS3 Fab (Fab, V domains shown)
VH: B1 VH with R32N, V53A, L101T
VL: B1 VL
notes: also called P52aA
For B3, the equilibrium dissociation constant (Kd) is 0.1 nM in experiment [5] and about 1000 nM in experiment [6].

B4: mAb1.v7.11 Fab (Fab, V domains shown)
VH: B1 VH with R32N, W33F, V53P, I57G, G100E, L101T
VL: B1 VL
notes: Fab with 8xHis tag
In the case of B4, the equilibrium dissociation constant (Kd) in experiment [1] came out at 156 nM; in experiment [2], 175 nM. Moreover, the results for the IC50 in experiment [3] and in experiment [4] were 0.23 nM and 0.24 nM, respectively.

B5: mAb1.v7.24 Fab (Fab, V domains shown)
VH: B1 VH with R32N, M34G, V53R, L101I
VL: B1 VL
notes: also called M34G/P52aR/T97
With B5, the Kd in experiment [1] turned out to be 0.31 nM; in experiment [2] it was 118 nM. Also, the results for the IC50 in experiment [3] and in experiment [4] were 0.2 nM and 0.6 nM, respectively.

B6: mAb1.v7.59 Fab (Fab, V domains shown)
VH: B1 VH with R32N, M34N, V53P, N59A, S98L, L101T
VL: B1 VL
notes: also called M34N//N58A/S94L
As for B6, the Kd is about 0.1 nM in experiment [1] and 271 nM in experiment [2]. Also, the values for the half-inhibitory concentration (IC50) in experiment [3] and in experiment [4] were 0.1 nM and 1.6 nM, respectively.

B7: mAb1.v7.15 Fab (Fab, V domains shown)
VH: B1 VH with R32N, M34D, V53P, N54M, L101F
VL: B1 VL
notes: also called M34D/N53M/T97F
In the case of B7, the dissociation constant Kd in experiment [1] came to 3 nM; in experiment [2], 160 nM. Also, the IC50 in experiment [3] came to 0.19 nM; in experiment [4], 1.85 nM.

B8: mAb1.v7.10 Fab (Fab, V domains shown)
VH: B1 VH with R32N, M34R, V53P, N54L, L101V
VL: B1 VL
notes: also called M34R/N53L/T97V
As for B8, the equilibrium dissociation constant (Kd) was found to be 2.71 nM in experiment [1] and 117 nM in experiment [2]. The half-maximal inhibitory concentration (IC50) in experiment [3] amounted to 0.19 nM; in experiment [4], 0.76 nM.

B9: mAb1.v7.NGS1 Fab (Fab, V domains shown)
VH: B1 VH with R32N, W33F, V53P, L101T
VL: B1 VL
notes: also called W33F
Turning to B9, the results for the Kd in experiment [5] and in experiment [6] were 49 nM and 271 nM, respectively.

B10: mAb1.v7.8 Fab (Fab, V domains shown)
VH: B1 VH with R32N, M34D, V53P, N54L, L101V
VL: B1 VL
notes: also called M34D/N53L/T97V
For the molecule B10, the Kd in experiment [1] was found to be 27 nM; in experiment [2], 104 nM. Also, the half-inhibitory concentration (IC50) in experiment [3] stood at 0.17 nM; in experiment [4], 0.45 nM.

B11: mAb1.v7.14 Fab (Fab, V domains shown)
VH: B1 VH with T30V, R32N, V53P, I60T, L101I
VL: B1 VL
notes: also called T30V/I59T/T97I
Turning to B11, the Kd in experiment [1] is about 0.1 nM; in experiment [2] it was 530 nM. The figures for the IC50 in experiment [3] and in experiment [4] were 0.1 nM and 1 nM, respectively.

B12: mAb1.v7.19 Fab (Fab, V domains shown)
VH: B1 VH with R32S, V53P, I60R, L101I
VL: B1 VL
notes: also called N32S/I59R/T97I
In the case of B12, the Kd in experiment [1] is 0.63 nM; in experiment [2], 261 nM. The half-inhibitory concentration (IC50) in experiment [3] turned out to be 0.23 nM; in experiment [4], 0.84 nM.

B13: mAb1.v7.NGS6 Fab (Fab, V domains shown)
VH: B1 VH with R32N, V53P, L101I
VL: B1 VL
notes: Fab with 8xHis tag; also called T97I
As for B13, the Kd in experiment [5] turned out to be 5.32 nM; in experiment [6] it was 289 nM.

B14: mAb1.v7.NGS2 Fab (Fab, V domains shown)
VH: B1 VH with R32N, M50F, V53P, L101T
VL: B1 VL
notes: also called M50F
As for B14, the equilibrium dissociation constant (Kd) was 63 nM in experiment [5] and about 100 nM in experiment [6].

B15: mAb1.v7.21 Fab (Fab, V domains shown)
VH: B1 VH with R32Y, V53P, I60M, L101V
VL: B1 VL
notes: also called N32Y/I59M/T97V
With B15, the equilibrium dissociation constant (Kd) in experiment [1] is 0.31 nM; in experiment [2] it was 118 nM. The half-inhibitory concentration (IC50) in experiment [3] worked out at 0.15 nM; in experiment [4], 0.91 nM.

B16: mAb1.v7.50 Fab (Fab, V domains shown)
VH: B1 VH with R32N, M34S, V53R, L101V
VL: B1 VL
notes: also called M34S/P52aR/T97V
Turning to B16, the Kd in experiment [1] was 4.16 nM; in experiment [2], 183 nM. The IC50 in experiment [3] was 0.1 nM; in experiment [4], 0.9 nM.

B17: mAb1.v7.NGS5 Fab (Fab, V domains shown)
VH: B1 VH with R32N, V53P, E62R, L101T
VL: B1 VL
notes: also called E61R
In the case of B17, the results for the Kd in experiment [5] and in experiment [6] were 43.6 nM and 85 nM, respectively.

For the origin of these results see US12365732 (23ANDME, dated 2025).
